Results on 13 sequences are retold here after PMC8960830.

pIC50, pKd: −log10 of the molar value. Bounds are passed on as bounds.

In data set [1] the test system is S9.6 Fab WT, PDB:7TQB_1+PDB:7TQB_2. The data set can be described thus: fluorescence polarization. The note with it: FP: 25 mM Tris-HCl pH 7.5, 50 mM NaCl, 2 mM MgCl2, 21 C, ~5 nM FAM duplex, ITC same buffer at 25 C, SEC-MALS 150 mM NaCl.
For data set [2] the test system is unchanged. The data set is described as follows: fluorescence polarization. The note with it: FP: 25 mM Tris-HCl pH 7.5, 50 mM NaCl, 2 mM MgCl2, 21 C, ~5 nM FAM duplex, ITC same buffer at 25 C, SEC-MALS 150 mM NaCl. The source holds these as a separate data set. (Polarisation of emitted light reports the rotation of a fluorescent probe.)
Data set [3] concerns S9.6 Fab HC_Y54L, PDB:7TQB_1+PDB:7TQB_2. The data set is described as follows: fluorescence polarization. The note with it: FP: 25 mM Tris-HCl pH 7.5, 50 mM NaCl, 2 mM MgCl2, 21 C, ~5 nM FAM duplex; ITC same buffer at 25 C; SEC-MALS 150 mM NaCl.
Data set [4] deals with S9.6 Fab HC_Y54M, PDB:7TQB_1+PDB:7TQB_2. The data set can be described thus: fluorescence polarization. The note with it: FP: 25 mM Tris-HCl pH 7.5, 50 mM NaCl, 2 mM MgCl2, 21 C, ~5 nM FAM duplex; ITC same buffer at 25 C; SEC-MALS 150 mM NaCl.
For data set [5], the system named is S9.6 Fab HC_Y54W, PDB:7TQB_1+PDB:7TQB_2. The data set can be described thus: fluorescence polarization. The note with it: FP: 25 mM Tris-HCl pH 7.5, 50 mM NaCl, 2 mM MgCl2, 21 C, ~5 nM FAM duplex; ITC same buffer at 25 C; SEC-MALS 150 mM NaCl.
In data set [6] the test system is S9.6 Fab HC_Y54H, PDB:7TQB_1+PDB:7TQB_2. The data set is described as follows: fluorescence polarization. The note with it: FP: 25 mM Tris-HCl pH 7.5, 50 mM NaCl, 2 mM MgCl2, 21 C, ~5 nM FAM duplex; ITC same buffer at 25 C; SEC-MALS 150 mM NaCl.
The subject of data set [7] is S9.6 Fab HC_Y54F, PDB:7TQB_1+PDB:7TQB_2. The data set is described as follows: fluorescence polarization. The note with it: FP: 25 mM Tris-HCl pH 7.5, 50 mM NaCl, 2 mM MgCl2, 21 C, ~5 nM FAM duplex; ITC same buffer at 25 C; SEC-MALS 150 mM NaCl.
Data set [8] concerns S9.6 Fab HC_Y54A, PDB:7TQB_1+PDB:7TQB_2. The data set is described as follows: fluorescence polarization. The note with it: FP: 25 mM Tris-HCl pH 7.5, 50 mM NaCl, 2 mM MgCl2, 21 C, ~5 nM FAM duplex; ITC same buffer at 25 C; SEC-MALS 150 mM NaCl.
Data set [9] relates to S9.6 Fab HC_Y54V, PDB:7TQB_1+PDB:7TQB_2. The data set is described as follows: fluorescence polarization. The note with it: FP: 25 mM Tris-HCl pH 7.5, 50 mM NaCl, 2 mM MgCl2, 21 C, ~5 nM FAM duplex; ITC same buffer at 25 C; SEC-MALS 150 mM NaCl.
The subject of data set [10] is S9.6 Fab HC_Y54R, PDB:7TQB_1+PDB:7TQB_2. The data set can be described thus: fluorescence polarization. The note with it: FP: 25 mM Tris-HCl pH 7.5, 50 mM NaCl, 2 mM MgCl2, 21 C, ~5 nM FAM duplex; ITC same buffer at 25 C; SEC-MALS 150 mM NaCl.
In data set [11] the test system is S9.6 Fab HC_Y54Q, PDB:7TQB_1+PDB:7TQB_2. The data set is described as follows: fluorescence polarization. The note with it: FP: 25 mM Tris-HCl pH 7.5, 50 mM NaCl, 2 mM MgCl2, 21 C, ~5 nM FAM duplex; ITC same buffer at 25 C; SEC-MALS 150 mM NaCl.
The subject of data set [12] is S9.6 Fab WT, PDB:7TQB_1+PDB:7TQB_2. The data set is described as follows: competition. The note with it: FP: 25 mM Tris-HCl pH 7.5, 50 mM NaCl, 2 mM MgCl2, 21 C, ~5 nM FAM duplex; ITC same buffer at 25 C; SEC-MALS 150 mM NaCl.
Data set [13] concerns S9.6 Fab HC_Y32A, PDB:7TQB_1+PDB:7TQB_2. The data set is described as follows: fluorescence polarization. The note with it: FP: 25 mM Tris-HCl pH 7.5, 50 mM NaCl, 2 mM MgCl2, 21 C, ~5 nM FAM duplex; ITC same buffer at 25 C; SEC-MALS 150 mM NaCl.
Data set [14] has as its system S9.6 Fab HC_Y54D, PDB:7TQB_1+PDB:7TQB_2. The data set is described as follows: fluorescence polarization. The note with it: FP: 25 mM Tris-HCl pH 7.5, 50 mM NaCl, 2 mM MgCl2, 21 C, ~5 nM FAM duplex; ITC same buffer at 25 C; SEC-MALS 150 mM NaCl.
In data set [15] the test system is S9.6 Fab HC_S31G, PDB:7TQB_1+PDB:7TQB_2. The data set can be described thus: fluorescence polarization. The note with it: FP: 25 mM Tris-HCl pH 7.5, 50 mM NaCl, 2 mM MgCl2, 21 C, ~5 nM FAM duplex; ITC same buffer at 25 C; SEC-MALS 150 mM NaCl.
Data set [16] has as its system S9.6 Fab HC_S31A, PDB:7TQB_1+PDB:7TQB_2. The data set is described as follows: fluorescence polarization. The note with it: FP: 25 mM Tris-HCl pH 7.5, 50 mM NaCl, 2 mM MgCl2, 21 C, ~5 nM FAM duplex; ITC same buffer at 25 C; SEC-MALS 150 mM NaCl.
Data set [17] deals with S9.6 Fab HC_Y54G, PDB:7TQB_1+PDB:7TQB_2. The data set can be described thus: fluorescence polarization. The note with it: FP: 25 mM Tris-HCl pH 7.5, 50 mM NaCl, 2 mM MgCl2, 21 C, ~5 nM FAM duplex; ITC same buffer at 25 C; SEC-MALS 150 mM NaCl.
For data set [18], the system named is S9.6 Fab HC_Y101F, PDB:7TQB_1+PDB:7TQB_2. The data set is described as follows: fluorescence polarization. The note with it: FP: 25 mM Tris-HCl pH 7.5, 50 mM NaCl, 2 mM MgCl2, 21 C, ~5 nM FAM duplex; ITC same buffer at 25 C; SEC-MALS 150 mM NaCl.
The subject of data set [19] is S9.6 Fab WT, PDB:7TQB_1+PDB:7TQB_2. The data set is described as follows: ITC. The note with it: 2 mM Mg2+, 25 C; FP: 25 mM Tris-HCl pH 7.5, 50 mM NaCl, 2 mM MgCl2, 21 C, ~5 nM FAM duplex; ITC same buffer at 25 C; SEC-MALS 150 mM NaCl.

In the case of CGTGTCAGACAAG / CUTGUCUGACACG, the negative-log Kd (pKd) in data set [1] (RNA strand: deoxy at positions 3, 6, 9, 12) was 6.42.
“CAGACAGACA / UGUCUGUCUG [10-bp hybrid 50% GC]”: the pKd in [2] was 5.51.
Regarding “CGTGUCAGACAAG / CUUGUCUGACACG [13-bp hybrid, 2'-OH (uridine) at dT5]”, in data set [2] (DNA strand: ribo-U at position 5), the pKd was 6.85.
In [1] (table fit 20.6 +/- 5.8 uM, RNA strand: deoxy at positions 2, 4, 6, 8, 10, 12 (12 inferred, name is cut in the material)), CGTGTCAGACAAG / CTUGUCUGACACG gave a pKd of less than 4.68.
In data set [2], “CAGACGGACA / UGUCCGUCUG [10-bp hybrid 60% GC]” gave a negative-log Kd (pKd) of 6.21.
On the same count and under the same terms, with “CGGACGGACA / UGUCCGUCCG [10-bp hybrid 70% GC]” the figure was 6.38.
In the case of “CUUGUCUGACACG / CGUGUCAGACAAG [13-bp dsRNA]”, the negative-log Kd (pKd) is 5.40 in data set [3]; 5.34 in [4]; 4.93 in data set [5]; 5.37 in data set [6]; 5.08 in data set [7]; 5.63 in [8]. Besides, the negative logarithm of the Kd (pKd) in data set [9] is 5.79; in data set [10], 5.72; in [11] it was 5.79; in data set [1] (2 mM Mg2+) it was 5.42. In [12], the pIC50 is 4.24.
In [2], “CGGCCGGACG / CGUCCGGCCG [10-bp hybrid 90% GC]” had a pKd of 5.99.
For “CGUGUCAGACAAG / CUUGUCUGACACG [13-bp hybrid, 2'-OH at dT3-dG4-dT5-dC6-dA7]”, the pKd in data set [2] (DNA strand: ribonucleotides at positions 3-7) was 7.00.
The sequence “CGTGTCTGACAAG / CUUGUCAGACACG [13-bp hybrid rU7A:dA7T]” gave a pKd in data set [2] of 6.96.
In turn, “CGTGTCAGACAAG / CTTGTCUGACACG [13-bp dsDNA with 2'-OH at U7-G8-A9]” gave a pKd in data set [1] (text: Kd > 7 uM, weakly bound, strand 2: ribonucleotides at positions 7-9, rest DNA) of 5.15.
As for “CGTGTCAGACAAG / CUUGUCUGACACG [13-bp DNA-RNA hybrid]”, the negative-log Kd (pKd) in data set [13] was 4.60; in [5], 6.12; in data set [2] (2 mM Mg2+), 6.72; in data set [14], 5.29; in data set [15], 6.77; in data set [16] it was 6.85. The negative logarithm of the Kd (pKd) in [6] was 6.44; in [7], 6.40; in data set [8], 5.58; in data set [10], 6.82; in data set [11] it was 6.14; in data set [1] (2 mM Mg2+), 6.63. The same sequence showed a negative logarithm of the Kd (pKd) in data set [19] of 6.38. Also, the pIC50 in data set [12] was 6.35. The same sequence came in with a binding signal (fold lower affinity than WT) in [17] of 58. Further, in [18], the binding signal (fold lower binding than WT) is less than 2.
With “CGGACGGACG / CGUCCGUCCG [10-bp hybrid 80% GC]”, the negative-log Kd (pKd) in data set [2] is 6.24.

What is called pKd is −log10 of the Kd, conventionally taken in molar units. Low values mean a high Kd, high ones a low Kd. As usually defined, the pIC50 is −log10 of the IC50, conventionally taken in molar units. A high value points to a low IC50.
